Laboratory results taken from the DeepSol protein solubility set.

Assay: soluble on expression in E. coli; label from the status in PepcDB or PDB records

Row | Sequence | soluble on expression in E. coli
1 | MVFSKKPITKYITWAIVTSQIPLPVIADSDNEIQSWIAGTASSISPHLQEGTLEDYAKGKIKALPGQAANHLVNEGIKSAFPEIIFRGGVNLEDGAKYRSSEFDMFIPVQETTSSLLFGQLGFRDHDNSSFDGRTYVNVGMGYRQEVNGWLLGVNTFLDADIRYSHLRGGIGGEVYKDSLAFSGNYYFPLTGWKMSAAHELHDERPAYGFDLRTKGTLPDFPWFSGELTYEQYYGDKVDLLGNGTLSRNPRAAGAALVWNPVPLLEVRAGYRDAGNGGSQAEGGLRVNYSFGTPLHEQLDYRNVGAPSNTTNRRAFVDRNYDIVMAYREQASKIRITAMPVSGLSGTLVTLMATVDSRYPVEKVEWSGDAELLAGLQLQGSLGSGLILPQLPLTATDGQEYSLYLTVTDSRGTRVTSERIPVRVTQDETSFRSWINVINDDVQVEDGNFVINTPLPAGEEGKVIEWHYVRERSEEEWASLKPRHIKYQSDTPGLAFKALGGTERDGHWVERVLVTHIGDDARSLKLHIEASGPDDKHPVKGTVLLQAQSDSIAQKVTSVEVLFTPGTEEANGSVTAPVVGTEMRARTLCVNNTDCTDAFNYQWEISDEMKSWQSVPGATKATWLLPYSLNGESLQNKYIRVRIISDKGNAKGNTATSDAN | not soluble
2 | MPGTPIPMGRQTHRAHSASGFYTPHVSKLKTNYDREFQKFLRSAKTAIDHLDKIEMQILCPLKKKIKRFHKESNTLDVYFRSQTYWRSFYKELMNRSDDVMDCFRFEDLRDVAAVVESHRLPDVLVSFVTQQLMEWRELFKDVEWMRKFRELSHNMDSLKTKRIEHVLRQDIIREIGVAIDVHNLKIDDFRSHSNNTERVAEGIAHAIEESKNKQDAGNQLKHVPVLSKQMSVRRWYREHYGDPQALSDESDEESLSDGDNSSLFVGTADSSSRDASDISTEEVVTENEFDEFFN | not soluble
3 | MGSSHHHHHHSSGLVPRGSHMETADLKSLAKRIYEAYLKNFNMNKVKARVILSGKASNNPPFVIHDMETLCMAEKTLVAKLVANGIQNKEAEVRIFHCCQCTSVETVTELTEFAKAIPGFANLDLNDQVTLLKYGVYEAIFAMLSSVMNKDGMLVAYGNGFITREFLKSLRKPFCDIMEPKFDFAMKFNALELDDSDISLFVAAIICCGDRPGLLNVGHIEKMQEGIVHVLRLHLQSNHPDDIFLFPKLLQKMADLRQLVTEHAQLVQIIKKTESDAALHPLLQEIYRDMY | soluble
4 | MPDIVNRKVEHVEIAAFENVDGLSSSTFLNDVILVHQGFPGISFSEINTKTKFFRKEISVPVMVTGMTGGRNELGRINKIIAEVAEKFGIPMGVGSQRVAIEKAEARESFAIVRKVAPTIPIIANLGMPQLVKGYGLKEFQDAIQMIEADAIAVHLNPAQEVFQPEGEPEYQIYALEKLRDISKELSVPIIVKESGNGISMETAKLLYSYGIKNFDTSGQGGTNWIAIEMIRDIRRGNWKAESAKNFLDWGVPTAASIMEVRYSVPDSFLVGSGGIRSGLDAAKAIALGADIAGMALPVLKSAIEGKESLEQFFRKIIFELKAAMMLTGSKDVDALKKTSIVILGKLKEWAEYRGINLSIYEKVRKRE | soluble
5 | MGNDKRSQIFTLSRYAGILRRCLKENAMSAQKPGLHPRNRHHSRYDLATLCQVNPELRQFLTLTPAGEQSVDFANPLAVKALNKALLAHFYAVANWDIPDGFLCPPVPGRADYIHHLADLLAEASGTIPANASILDIGVGANCIYPLIGVHEYGWRFTGSETSSQALSSAQAIISSNPGLNRAIRLRRQKESGAIFNGIIHKNEQYDATLCNPPFHDSAAAARAGSERKRRNLGLNKDDALNFGGQQQELWCEGGEVTFIKKMIEESKGFAKQVMWFTSLVSRGENLPPLYRALTDVGAVKVVKKEMAQGQKQSRFIAWTFMNDEQRRRFVNRQRLEHHHHHH | not soluble
6 | IGFQRGAQGEGLVVIDLQGTNTPVDVQQQGSKVVVRFPGIKIPTHLARRLNTTDFATPVASIDSYNDGSNGVISIQSTGSYEYMAYQAENKLTISLKRPQDNV | not soluble
7 | GPGSMFGANAPSTGIGAPAAGFGKPPATFGTSALSGANTTATAGRGFGAATGASATPGFGIAFAAPSTSTAAAGGASGFGSSAASGTTGFGGAAGFGSSAASGTTGFGGAAGFGSSAASGTTGFGAGGGFGAKPGSGFGVSATSGFGAPATGTTGFGAGATAPAAIGGWGAQQPNPAMQPQAPQQPQPTVTLQDFARQSALASYLVKLDESYNALHPNCRFRAFVYNSCGAGQVMDAIQKERYTAHLNGGGCSEEAYMQALHQNPDPGRLYPSPIHFSQELLRRTEKQREAVKVLQKKVTELLQDIDTVAAMDAANVRRQREVEQEEVMLQHRWYSLLCKMELLRRHGSSCGEEGLLNSRVEQLRKLLRAPGRFSQLLSELRPFLTEEASRVAMITQQSANKTEARQQQQQCRFVGSAPAAWRNAGSQPLLRTEVDPYIMKDWVQFAKQMQDGIETLNELLKTDLKEMQAIRSRVEAS | not soluble
8 | NYAPAVAEAFYRGIPLVAVTADRPAEWIDQDEGQTIRQEGAMAGFVKSYCSLRAEFDTSASAWYANRRLNEVLNHALMPRRGPVHINMSFCEPLYGTSSGYSGKERAITFVRERQELPEEVWDMLVKRFLEAPRVMIVAGFYPPDEDVSAALQDICKFPHTVLFAESLSNIRTDTGICTADRVLAAAGEDESLYPELLISFGGSLISRMLKTFLRRAKPAEHWGIDERFPAPDTFCALTHHICTGASGFWKEFAGRLKDKAPESLSPEGISYAGSWQKIKRKADLLHRTFMADAGWSDLKAFEVILRHIPHDAALHAANSTPVRYLQLFEHAHYAGGEWSNRGTNGIEGATSTAMGFSE | not soluble
9 | MDERRKRKAKDQLSPYSNPDEENDRHNTAIEPSPSASRKRAKARVGDLGTIADSGPLKGVLSSVNILKPRIRSDRISGLNRCFVNAVQKVVEKESNKSLLYLFRQYEKYYEELNEASD | not soluble
10 | MDDLRIEYDAPNDVYFPGQAVTGKVIIQNREWIKARFLKICIHGGAHTHWSESRSTYRTNTRGERERFTENVNYNATINYLTGESIAWQSRDGTDRLPAGTNVFPFAFNLPINCAPSFEGCHGHIRYDVHVELDRPWKFNKKSRKCFSVIPVFDLNITPTAINPMVNTASKNTGLILKKGLVTITVNLPKRGYVAGEIMPITVNIDNGSKVAVSEVSAKMTQLSHFHASHGNMIGVTAHTHNRNDEKLVAESRRVADVPAKSRGQMVLSMKIPAIVPSFNCPIIAVDYCLTVKVSTQQIFGGGLKCEFPLIIGTIPIRQMNQAAPGAMPTMPSVSAPPYPVVAGASASQAVYPTAPSAPPASPGGEAPPSYEESVHGAGKVEDAEAFAPRYPVYNNLPQQQNSQLPPEYAPPLPAKSGF | not soluble
11 | LPIISIDTKQQVIPLVTKEGGKYVKARDNINVDIELRDSPSRSHHLSEKPRIRTKGLISYRGNTSRYFDKKSLKVKFVTNKLKEKKHRLAGMPKESEWVLHGPFLDRTLLRNYLSYNIAGEIMSYAPNVRYCELFVNGEYQGVYLAVENIEQGEQRVPIEKSDKKLHKTPYIVAWDREHKAKQKLDNYVHYTHQSGISALDVKYPGKQRLTSKQLEFINKDINHIEKVLYSYDFSQYPKYIDRESFANYFVINEFFRNVDAGKFSTYLYKDLRDRAKLVVWDFNNAFDNQIEGRVDEADFTLTDAPWFNMLIKDKAFIDLVVHRYKELRKGVLATEYLSNYIDETRHFLGPAIDRNYKKWGYVFDLKNTDPRNYLIPTERNVTSYHKSVEQLKDFIKKRGRWMDRNIETLYQYSAPSKNTNTLLE | not soluble
12 | MGSKTKKSFTVLLAFIMSFSVTGCFDKREIDDLVNPIAIGFDKGSNHSVRMTLQIAIPTKVAGGGEGGGGGGGEESVSYTTVEAPSIYSGLNMINSYVSKQLNMSQIKVLVFSEELAREGIEKYINALMRGREFRPHSYVIVARGTGNAAERYLRAVEPELESNPAKYYEMLLSAYTYTGFTANTSLTNFYKNMVSESTQPLAVLADISKFEKSDDINMDNSSYQEKGREFPLEGDFKAGDMPKVGTIKSEVMGLAVFNGSKMVGELDGEETQLQLMLEGNFGYSYVTIPDPEAEDYVVLLNIKQNRKPKRKVEIVDEKPHIKVNIYLEADILSIQSGVNYESLEKVKILEDAAEKFFEKGFLRMLKKTAKEFKSDIAGFGKEMKGKFLTWDEWTNFNWIEKYPDSEFEVDVDLKIRRPGLMLRTYPAAGTEVGEE | soluble
